Numbering of substitutions follows the chain as printed.
B1: YL-G2-B (antibody, human IgG1, kappa)
heavy: EVQLQQSGPELEKPGASVKISCKASGYSFTGYKMNWVKQSNGKSLEWIGNIDPYYGGTTYNQKFKGKATLTVDKSSSTAYMQLKSLTSEDSAVYYCARYGKGNTMDYWGQGTSVTVSSASTKGPSVFPLAPSSKSTSGGTAALGCLVKDYFPEPVTVSWNSGALTSGVHTFPAVLQSSGLYSLSSVVTVPSSSLGTQTYICNVNHKPSNTKVDKRVEPKSCDKTHTCPPCPAPELVGGPSVFLLPPKPKDTLMISRTPEVTCVVVDVSHEDPEVKFNWYVDGVEVHNAKTKPPEEQYNSTLRVVSVLTVLHQDWLNGKEYKCKVSNKALPAPIEKTISKAKGQPREPQVYTLPPSREEMTKNQVSLTCLVKGFYPSDIAVEWESNGQPENNYKTTPLVLDSDGSFFLYSKLTVDKSRWQQGNVFSCSVMHEALHNHYTQKSLSLSPGK
light: DIVMTQSPSSLTVTAGEKVTMSCKSSQSLLNSGNQKNYLTWYQQRPGQPPKLLIYWASTRESGVPVRFTGSGSGTDFTLTISSVQAEDLAVYYCQNAYIYPLTFGTGTKLELKRTVAAPSVFIFPPSDEQLKSGTASVVCLLNNFYPREAKVQWKVDNALQSGNSQESVTEQDSKDSTYSLSSTLTLSKADYEKHKVYACEVTHQGLSSPVTKSFNRGEC
B2: YL-G2-C (antibody, human IgG1, kappa)
heavy: QIQLVQSGPELRKPGETVKISCKASGFPFTTDGMSWVKQAPGKGLKWMGWINTYSGVPTYADDFKGRVAFSLETSASTAYLQIKNLKNEDTATYFCARFRRGNALDNWGQGTSVTVSSASTKGPSVFPLAPSSKSTSGGTAALGCLVKDYFPEPVTVSWNSGALTSGVHTFPAVLQSSGLYSLSSVVTVPSSSLGTQTYICNVNHKPSNTKVDKRVEPKSCDKTHTCPPCPAPELVGGPSVFLLPPKPKDTLMISRTPEVTCVVVDVSHEDPEVKFNWYVDGVEVHNAKTKPPEEQYNSTLRVVSVLTVLHQDWLNGKEYKCKVSNKALPAPIEKTISKAKGQPREPQVYTLPPSREEMTKNQVSLTCLVKGFYPSDIAVEWESNGQPENNYKTTPLVLDSDGSFFLYSKLTVDKSRWQQGNVFSCSVMHEALHNHYTQKSLSLSPGK
light: B1 light with R45K, V66D, V91I, A97N, I99F, T106A, K109R
B3: YL-G2-D (antibody, human IgG1, kappa)
heavy: QLQQSGPELEKPGASVKISCKASGYSFTGYKMNWVKQSNGESLEWIGNIDPYYGDTTYTQKFKGKATFTVDTSSSTAYMQLKSLTSEDSAVYFCARYNRGNTMDYWGQGTSVTVSSASTKGPSVFPLAPSSKSTSGGTAALGCLVKDYFPEPVTVSWNSGALTSGVHTFPAVLQSSGLYSLSSVVTVPSSSLGTQTYICNVNHKPSNTKVDKRVEPKSCDKTHTCPPCPAPELVGGPSVFLLPPKPKDTLMISRTPEVTCVVVDVSHEDPEVKFNWYVDGVEVHNAKTKPPEEQYNSTLRVVSVLTVLHQDWLNGKEYKCKVSNKALPAPIEKTISKAKGQPREPQVYTLPPSREEMTKNQVSLTCLVKGFYPSDIAVEWESNGQPENNYKTTPLVLDSDGSFFLYSKLTVDKSRWQQGNVFSCSVMHEALHNHYTQKSLSLSPGK
light: B1 light with M21L, T75A, Y93F, I99F, K113R

target: recombinant huCLDN18.2-Fc (Sino Biological, P/N: 20047-H02H) (human); assay: KinExA 4000 equilibrium, antibody constant, recombinant huCLDN18.2-Fc titrated

Row | Binder | Kd
1 | B1 | 1.7 nM
2 | B2 | 3.8 nM
3 | B3 | 6.4 nM
